Patent US20030049732A1 (Human Genome Sciences, published 2003)

T1: Nod1 (human, UniProt Q9Y239 1-953)
T1 construct: also called wild-type Nod1; WT Nod1
T1 sequence: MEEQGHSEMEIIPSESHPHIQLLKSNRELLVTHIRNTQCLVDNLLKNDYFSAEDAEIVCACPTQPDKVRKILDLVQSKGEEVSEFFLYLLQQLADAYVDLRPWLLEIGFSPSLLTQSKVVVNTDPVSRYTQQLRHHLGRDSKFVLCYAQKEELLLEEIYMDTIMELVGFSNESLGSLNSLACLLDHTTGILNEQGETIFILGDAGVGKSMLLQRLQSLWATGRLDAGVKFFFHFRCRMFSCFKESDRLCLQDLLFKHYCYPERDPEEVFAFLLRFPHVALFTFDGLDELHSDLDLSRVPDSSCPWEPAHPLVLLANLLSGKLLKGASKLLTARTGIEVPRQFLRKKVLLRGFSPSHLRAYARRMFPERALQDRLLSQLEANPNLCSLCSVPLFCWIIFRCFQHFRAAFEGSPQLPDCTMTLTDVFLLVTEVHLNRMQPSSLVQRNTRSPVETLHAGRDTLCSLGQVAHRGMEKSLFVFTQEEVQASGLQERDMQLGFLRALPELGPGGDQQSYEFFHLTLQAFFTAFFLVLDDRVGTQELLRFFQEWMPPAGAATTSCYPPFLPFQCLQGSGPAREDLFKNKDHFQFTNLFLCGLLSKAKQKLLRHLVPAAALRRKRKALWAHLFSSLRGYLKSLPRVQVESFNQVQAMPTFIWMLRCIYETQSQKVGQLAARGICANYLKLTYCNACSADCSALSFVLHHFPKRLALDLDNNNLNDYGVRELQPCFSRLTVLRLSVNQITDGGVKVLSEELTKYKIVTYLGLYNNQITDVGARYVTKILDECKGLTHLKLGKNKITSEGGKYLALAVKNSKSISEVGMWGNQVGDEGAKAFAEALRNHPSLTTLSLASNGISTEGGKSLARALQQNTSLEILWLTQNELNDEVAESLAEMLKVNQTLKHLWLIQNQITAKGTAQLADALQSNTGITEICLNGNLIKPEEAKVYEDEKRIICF

B1: A20 (other, UniProt P21580 1-790, looked up)
chain: MAEQVLPQALYLSNMRKAVKIRERTPEDIFKPTNGIIHHFKTMHRYTLEMFRTCQFCPQFREIIHKALIDRNIQATLESQKKLNWCREVRKLVALKTNGDGNCLMHATSQYMWGVQDTDLVLRKALFSTLKETDTRNFKFRWQLESLKSQEFVETGLCYDTRNWNDEWDNLIKMASTDTPMARSGLQYNSLEEIHIFVLCNILRRPIIVISDKMLRSLESGSNFAPLKVGGIYLPLHWPAQECYRYPIVLGYDSHHFVPLVTLKDSGPEIRAVPLVNRDRGRFEDLKVHFLTDPENEMKEKLLKEYLMVIEIPVQGWDHGTTHLINAAKLDEANLPKEINLVDDYFELVQHEYKKWQENSEQGRREGHAQNPMEPSVPQLSLMDVKCETPNCPFFMSVNTQPLCHECSERRQKNQNKLPKLNSKPGPEGLPGMALGASRGEAYEPLAWNPEESTGGPHSAPPTAPSPFLFSETTAMKCRSPGCPFTLNVQHNGFCERCHNARQLHASHAPDHTRHLDPGKCQACLQDVTRTFNGICSTCFKRTTAEASSSLSTSLPPSCHQRSKSDPSRLVRSPSPHSCHRAGNDAPAGCLSQAARTPGDRTGTSKCRKAGCVYFGTPENKGFCTLCFIEYRENKHFAAASGKVSPTASRFQNTIPCLGRECGTLGSTMFEGYCQKCFIEAQNQRFHEAKRTEEQLRSSQRRDVPRTTQSTSRPKCARASCKNILACRSEELCMECQHPNQRMGPGAHRGEPAPEDPPKQRCRAPACDHFGNAKCNGYCNECFQFKQMYG
B2: DEDD (other, UniProt O75618 1-318, looked up)
chain: MAGLKRRASQVWPEEHGEQEHGLYSLHRMFDIVGTHLTHRDVRVLSFLFVDVIDDHERGLIRNGRDFLLALERQGRCDESNFRQVLQLLRIITRHDLLPYVTLKRRRAVCPDLVDKYLEETSIRYVTPRALSDPEPRPPQPSKTVPPHYPVVCCPTSGPQMCSKRPARGRATLGSQRKRRKSVTPDPKEKQTCDIRLRVRAEYCQHETALQGNVFSNKQDPLERQFERFNQANTILKSRDLGSIICDIKFSELTYLDAFWRDYINGSLLEALKGVFITDSLKQAVGHEAIKLLVNVDEEDYELGRQKLLRNLMLQALP
B3: IKKb (enzyme, UniProt O14920 1-756, looked up)
chain: MSWSPSLTTQTCGAWEMKERLGTGGFGNVIRWHNQETGEQIAIKQCRQELSPRNRERWCLEIQIMRRLTHPNVVAARDVPEGMQNLAPNDLPLLAMEYCQGGDLRKYLNQFENCCGLREGAILTLLSDIASALRYLHENRIIHRDLKPENIVLQQGEQRLIHKIIDLGYAKELDQGSLCTSFVGTLQYLAPELLEQQKYTVTVDYWSFGTLAFECITGFRPFLPNWQPVQWHSKVRQKSEVDIVVSEDLNGTVKFSSSLPYPNNLNSVLAERLEKWLQLMLMWHPRQRGTDPTYGPNGCFKALDDILNLKLVHILNMVTGTIHTYPVTEDESLQSLKARIQQDTGIPEEDQELLQEAGLALIPDKPATQCISDGKLNEGHTLDMDLVFLFDNSKITYETQISPRPQPESVSCILQEPKRNLAFFQLRKVWGQVWHSIQTLKEDCNRLQQGQRAAMMNLLRNNSCLSKMKNSMASMSQQLKAKLDFFKTSIQIDLEKYSEQTEFGITSDKLLLAWREMEQAVELCGRENEVKLLVERMMALQTDIVDLQRSPMGRKQGGTLDDLEEQARELYRRLREKPRDQRTEGDSQEMVRLLLQAIQSFEKKVRVIYTQLSKTVVCKQKALELLPKVEEVVSLMNEDEKTVVRLQEKRQKELWNLLKIACSKVRGPVSGSPDSMNASRLSQPGQLMSQPSTASNSLPEPAKKSEELVAEAHNLCTLLENAIQDTVREQDQSFTALDWSWLQTEEEEHSCLEQAS
notes: also called IKKβ
B4: Caspase-3 (enzyme, UniProt P42574 1-277, looked up)
chain: MENTENSVDSKSIKNLEPKIIHGSESMDSGISLDNSYKMDYPEMGLCIIINNKNFHKSTGMTSRSGTDVDAANLRETFRNLKYEVRNKNDLTREEIVELMRDVSKEDHSKRSSFVCVLLSHGEEGIIFGTNGPVDLKKITNFFRGDRCRSLTGKPKLFIIQACRGTELDCGIETDSGVDDDMACHKIPVEADFLYAYSTAPGYYSWRNSKDGSWFIQSLCAMLKQYADKLEFMHILTRVNRKVATEFESFSFDATFHAKKQIPCIVSMLTKELYFYH
B5: FADD (other, UniProt Q13158 1-208, looked up)
chain: MDPFLVLLHSVSSSLSSSELTELKFLCLGRVGKRKLERVQSGLDLFSMLLEQNDLEPGHTELLRELLASLRRHDLLRRVDDFEAGAAAGAAPGEEDLCAAFNVICDNVGKDWRRLARQLKVSDTKIDSIEDRYPRNLTERVRESLRIWKNTEKENATVAHLVGALRSCQMNLVADLVQEVQQARDLQNRSGAMSPMSWNSDASTSEAS
B6: Caspase-7 (enzyme, UniProt P55210 1-303, looked up)
chain: MADDQGCIEEQGVEDSANEDSVDAKPDRSSFVPSLFSKKKKNVTMRSIKTTRDRVPTYQYNMNFEKLGKCIIINNKNFDKVTGMGVRNGTDKDAEALFKCFRSLGFDVIVYNDCSCAKMQDLLKKASEEDHTNAACFACILLSHGEENVIYGKDGVTPIKDLTAHFRGDRCKTLLEKPKLFFIQACRGTELDDGIQADSGPINDTDANPRYKIPVEADFLFAYSTVPGYYSWRSPGRGSWFVQALCSILEEHGKDLEIMQILTRVNDRVARHFESQSDDPHFHEKKQIPCVVSMLTKELYFSQ
B7: IKKa (enzyme, UniProt O15111 1-745, looked up)
chain: MERPPGLRPGAGGPWEMRERLGTGGFGNVCLYQHRELDLKIAIKSCRLELSTKNRERWCHEIQIMKKLNHANVVKACDVPEELNILIHDVPLLAMEYCSGGDLRKLLNKPENCCGLKESQILSLLSDIGSGIRYLHENKIIHRDLKPENIVLQDVGGKIIHKIIDLGYAKDVDQGSLCTSFVGTLQYLAPELFENKPYTATVDYWSFGTMVFECIAGYRPFLHHLQPFTWHEKIKKKDPKCIFACEEMSGEVRFSSHLPQPNSLCSLVVEPMENWLQLMLNWDPQQRGGPVDLTLKQPRCFVLMDHILNLKIVHILNMTSAKIISFLLPPDESLHSLQSRIERETGINTGSQELLSETGISLDPRKPASQCVLDGVRGCDSYMVYLFDKSKTVYEGPFASRSLSDCVNYIVQDSKIQLPIIQLRKVWAEAVHYVSGLKEDYSRLFQGQRAAMLSLLRYNANLTKMKNTLISASQQLKAKLEFFHKSIQLDLERYSEQMTYGISSEKMLKAWKEMEEKAIHYAEVGVIGYLEDQIMSLHAEIMELQKSPYGRRQGDLMESLEQRAIDLYKQLKHRPSDHSYSDSTEMVKIIVHTVQSQDRVLKELFGHLSKLLGCKQKIIDLLPKVEVALSNIKEADNTVMFMQGKRQKEIWHLLKIACTQSSARSLVGSSLEGAVTPQTSAWLPPTSAEHDHSLSCVVTPQDGETSAQMIEENLNCLGHLSTIIHEANEEQGNSMMNLDWSWLTE
notes: also called IKKα
B8: NIK (enzyme, UniProt Q99558 1-947, looked up)
chain: MAVMEMACPGAPGSAVGQQKELPKAKEKTPPLGKKQSSVYKLEAVEKSPVFCGKWEILNDVITKGTAKEGSEAGPAAISIIAQAECENSQEFSPTFSERIFIAGSKQYSQSESLDQIPNNVAHATEGKMARVCWKGKRRSKARKKRKKKSSKSLAHAGVALAKPLPRTPEQESCTIPVQEDESPLGAPYVRNTPQFTKPLKEPGLGQLCFKQLGEGLRPALPRSELHKLISPLQCLNHVWKLHHPQDGGPLPLPTHPFPYSRLPHPFPFHPLQPWKPHPLESFLGKLACVDSQKPLPDPHLSKLACVDSPKPLPGPHLEPSCLSRGAHEKFSVEEYLVHALQGSVSSGQAHSLTSLAKTWAARGSRSREPSPKTEDNEGVLLTEKLKPVDYEYREEVHWATHQLRLGRGSFGEVHRMEDKQTGFQCAVKKVRLEVFRAEELMACAGLTSPRIVPLYGAVREGPWVNIFMELLEGGSLGQLVKEQGCLPEDRALYYLGQALEGLEYLHSRRILHGDVKADNVLLSSDGSHAALCDFGHAVCLQPDGLGKSLLTGDYIPGTETHMAPEVVLGRSCDAKVDVWSSCCMMLHMLNGCHPWTQFFRGPLCLKIASEPPPVREIPPSCAPLTAQAIQEGLRKEPIHRVSAAELGGKVNRALQQVGGLKSPWRGEYKEPRHPPPNQANYHQTLHAQPRELSPRAPGPRPAEETTGRAPKLQPPLPPEPPEPNKSPPLTLSKEESGMWEPLPLSSLEPAPARNPSSPERKATVPEQELQQLEIELFLNSLSQPFSLEEQEQILSCLSIDSLSLSDDSEKNPSKASQSSRDTLSSGVHSWSSQAEARSSSWNMVLARGRPTDTPSYFNGVKVQIQSLNGEHLHIREFHRVKVGDIATGISSQIPAAAFSLVTKDGQPVRYDMEVPDSGIDLQCTLAPDGSFAWSWRVKHGQLENRP
notes: also called N1K
B9: Ced-4 (other, UniProt P30429 1-549, looked up)
chain: MLCEIECRALSTAHTRLIHDFEPRDALTYLEGKNIFTEDHSELISKMSTRLERIANFLRIYRRQASELGPLIDFFNYNNQSHLADFLEDYIDFAINEPDLLRPVVIAPQFSRQMLDRKLLLGNVPKQMTCYIREYHVDRVIKKLDEMCDLDSFFLFLHGRAGSGKSVIASQALSKSDQLIGINYDSIVWLKDSGTAPKSTFDLFTDILLMLKSEDDLLNFPSVEHVTSVVLKRMICNALIDRPNTLFVFDDVVQEETIRWAQELRLRCLVTTRDVEISNAASQTCEFIEVTSLEIDECYDFLEAYGMPMPVGEKEEDVLNKTIELSSGNPATLMMFFKSCEPKTFEKMAQLNNKLESRGLVGVECITPYSYKSLAMALQRCVEVLSDEDRSALAFAVVMPPGVDIPVKLWSCVIPVDICSNEEEQLDDEVADRLKRLSKRGALLSGKRMPVLTFKIDHIIHMFLKHVVDAQTIANGISILEQRLLEIGNNNVSVPERHIPSHFQKFRRSSASEMYPKTTEETVIRPEDFPKFMQLHQKFYDSLKNFACC

Target: T1, Nod1
Experiment: co-immunoprecipitation, tagged proteins transiently expressed in 293T cells
Description: The CARD and its structurally related death effector domain (DED) are peptide motifs that mediate interactions between apoptosis-regulatory proteins (Science 281:1301 (1998); Hofmann et al., Trends Biochem. Sci. 22:155 (1998)).

Binding result, no binding:
B1
B2
B3
B4
B5
B6
B7
B8
B9
